From patent publication EP4574844A1 (Numab Therapeutics AG, dated 2025)

What was measured:
[1] = target: human PD-L1 on the cell surface (human, UniProt Q9NZQ7 19-290); experiment: cell-based or functional assay
[2] = target: human CD47 on the cell surface (human, UniProt Q08722 19-323); experiment: cell-based or functional assay
recombinant human PDL1 = target: T1, recombinant human PDL1 (human, UniProt Q9NZQ7 19-238, limits assumed); experiment: SPR
T1 construct: SPR antigen; also called CD274; B7-H1

Row | PD-L1 driven EC50 [nM], phagocytosis of H292 cells [1] [nM] | CD47 driven EC50 [nM], phagocytosis of H292 cells [2] [nM] | CD47 driven EC50 [nM], phagocytosis of RBCs [2] [nM] | Kd (recombinant human PDL1) [nM] | koff (recombinant human PDL1) [s⁻¹] | kon (recombinant human PDL1) [M⁻¹ s⁻¹] | Binder
1 | 0.071 | 25.2 | 37.4 | – | – | – | PRO4914 (antibody, human IgG1, kappa) heavy 1: QQVVESGGGLVQPGGSLRLSCAVSGIDLNSYAMTWVRQAPGKGLEWIGYIGSASSTYYASWASGRFTISKDNSKNTVYLQMNSLRAEDTAVYFCARGSTYINIWGQGTLVTVSSASVAAPSVFIFPPSDEQLKSGTASVVCLLNNFYPREAKVQWKVDNALQSGNSQESVTEQDSKDSTYSLSSTLTLSKADYEKHKVYACEVTHQGLSSPVTKSFNRGECDKTHTCPPCPAPELLGGPSVFLFPPKPKDTLMISRTPEVTCVVVDVSHEDPEVKFNWYVDGVEVHNAKTKPREEQYNSTYRVVSVLTVLHQDWLNGKEYKCKVSNKALPAPIEKTISKAKGQPREPQVYTLPPCREEMTKNQVSLSCAVKGFYPSDIAVEWESNGQPENNYKTTPPVLDSDGSFFLVSKLTVDKSRWQQGNVFSCSVMHEALHNHYTQKSLSLSPGKGGGGSGGGGSDVQMTQSPSSLSASVGDRVTITCQASQSIGSNLAWYQQKPGKPPKLLIYKGGTLESGVPSRFSGSGSGTDFTLTISSLQPEDFATYYCQSTAGSSRSGNYGYVFGCGTKVTVLGGGGGSGGGGSGGGGSGGGGSQQLVESGGGLVQPGGSLRLSCAASGFSFTNNYYMCWVRQAPGKCLEWIACMLVGAWGNTYYASWANGRFTISKDNSKNTVYLQMNSLRAEDSAVYFCARARDYTWTLGGDPETSGFNLWGQGTLVKVSS heavy 2: not shown light 1: DVQMTQSPSSLSASVGDRVTITCQASQSISSWVSWYQQKPGKPPKLLIYRGGYLESGVPSRFSASGSGTDFTLTISSLQPEDFATYYCQSTDSSTYGGAFGQGTKVEIKSSASTKGPSVFPLAPSSKSTSGGTAALGCLVKDYFPEPVTVSWNSGALTSGVHTFPAVLQSSGLYSLSSVVTVPSSSLGTQTYICNVNHKPSNTKVDKKVEPKSC light 2: DIQMTQSPSSLSASVGDRVTITCQASQSIGTYLAWYQQKPGKPPKLLIYRGGILASGVPSRFSGSGSGTDFTLTISSLQPEDFATYYCQSNFYSDSTTIGPNAFGQGTKVEIKRTVAAPSVFIFPPSDEQLKSGTASVVCLLNNFYPREAKVQWKVDNALQSGNSQESVTEQDSKDSTYSLSSTLTLSKADYEKHKVYACEVTHQGLSSPVTKSFNRGEC
2 | 0.09 | – | – | – | – | – | PRO5054 (antibody) chain 1: DIQMTQSPSSLSASVGDRVTITCQSSESVYSNNQLSWYQQKPGQPPKLLIYDASDLASGVPSRFSGSGSGTDFTLTISSLQPEDFATYYCAGGFSSSSDTAFGCGTKLTVLGGGGGSGGGGSGGGGSGGGGSEVQLVESGGGLVQPGGSLRLSCAASGFSLSSNAMGWVRQAPGKCLEYIGIISVGGFTYYASWAKGRFTISRDNSKNTVYLQMNSLRAEDSATYFCARDRHGGDSSGAFYLWGQGTLVKVSSEPKSSDKTHTCPPCPAPELLGGPSVFLFPPKPKDTLMISRTPEVTCVVVDVSHEDPEVKFNWYVDGVEVHNAKTKPREEQYNSTYRVVSVLTVLHQDWLNGKEYKCKVSNKALPAPIEKTISKAKGQPREPQVYTLPPCREEMTKNQVSLSCAVKGFYPSDIAVEWESNGQPENNYKTTPPVLDSDGSFFLVSKLTVDKSRWQQGNVFSCSVMHEALHNHYTQKSLSLSPGKGGGGSGGGGSDVQMTQSPSSLSASVGDRVTITCQASQSIGSNLAWYQQKPGKPPKLLIYKGGTLESGVPSRFSGSGSGTDFTLTISSLQPEDFATYYCQSTAGSSRSGNYGYVFGCGTKVTVLGGGGGSGGGGSGGGGSGGGGSQQLVESGGGLVQPGGSLRLSCAASGFSFTNNYYMCWVRQAPGKCLEWIACMLVGAWGNTYYASWANGRFTISKDNSKNTVYLQMNSLRAEDSAVYFCARARDYTWTLGGDPETSGFNLWGQGTLVKVSS chain 2: not shown
3 | 0.13 | – | – | – | – | – | PRO5057 (antibody, human IgG1, kappa) DIQMTQSPSSLSASVGDRVTITCQSSESVYSNNQLSWYQQKPGQPPKLLIYDASDLASGVPSRFSGSGSGTDFTLTISSLQPEDFATYYCAGGFSSSSDTAFGCGTKLTVLGGGGGSGGGGSGGGGSGGGGSEVQLVESGGGLVQPGGSLRLSCAASGFSLSSNAMGWVRQAPGKCLEYIGIISVGGFTYYASWAKGRFTISRDNSKNTVYLQMNSLRAEDSATYFCARDRHGGDSSGAFYLWGQGTLVKVSSEPKSSDKTHTCPPCPAPELLGGPSVFLFPPKPKDTLMISRTPEVTCVVVDVSHEDPEVKFNWYVDGVEVHNAKTKPREEQYNSTYRVVSVLTVLHQDWLNGKEYKCKVSNKALPAPIEKTISKAKGQPREPQVYTLPPCREEMTKNQVSLSCAVKGFYPSDIAVEWESNGQPENNYKTTPPVLDSDGSFFLVSKLTVDKSRWQQGNVFSCSVMHEALHNHYTQKSLSLSPGKGGGGSGGGGSDVQMTQSPSSLSASVGDRVTITCQASQSIGSNLAWYQQKPGKPPKLLIYKGGTLESGVPSRFSGSGSGTDFTLTISSLQPEDFATYYCQSTAGSSRSGNYGYVFGCGTKVTVLGGGGGSGGGGSGGGGSGGGGSQQLVESGGGLVQPGGSLRLSCAASGFSFTNNYYMCWVRQAPGKCLEWIACMLVGAWGNTYYASWANGRFTISKDNSKNTVYLQMNSLRAEDSAVYFCARARDYTWTLGGDPETSGFNLWGQGTLVKVSS heavy: not shown light: DIQMTQSPSSLSASVGDRVTITCQASQSINDYLAWYQQKPGKAPKLLIYKGGTLASGVPSRFSGSGSGTDFTLTISSLQPEDFATYYCQQGYIITDIDNVFGQGTKVEIKRTVAAPSVFIFPPSDEQLKSGTASVVCLLNNFYPREAKVQWKVDNALQSGNSQESVTEQDSKDSTYSLSSTLTLSKADYEKHKVYACEVTHQGLSSPVTKSFNRGEC
4 | – | – | – | 0.034 | 0.00014 | 4e+06 | PRO5036 (scFv, anti-PDL1 scFv) scFv: DIQMTQSPSSLSASVGDRVTITCQASQSIGTYLAWYQQKPGKPPKLLIYRGGILASGVPSRFSGSGSGTDFTLTISSLQPEDFATYYCQSNFYSDSTTIGPNAFGTGTKVTVLGGGGGSGGGGSGGGGSGGGGSQQLVESGGGLVQPGGSLRLSCAASGFSFNSDYWIYWVRQAPGKGLEWIASIYGGSSGNTQYASWAQGRFTISKDNSKNTVYLQMNSLRAEDTAVYFCARGYVDYGGATDLWGQGTLVTVSS

More lines, now with the values behind:

Row | Binder | PD-L1 driven EC50 [nM], phagocytosis of H292 cells [1] [nM] | CD47 driven EC50 [nM], phagocytosis of H292 cells [2] [nM] | CD47 driven EC50 [nM], phagocytosis of RBCs [2] [nM] | Kd (recombinant human PDL1) [nM] | koff (recombinant human PDL1) [s⁻¹] | kon (recombinant human PDL1) [M⁻¹ s⁻¹]
5 | PRO3723 (scFv, anti-PDL1 scFv) scFv: DIQMTQSPASLSASVGDRVTITCQASQSIGTYLAWYQQKPGKPPKLLIYRGGILASGVPSRFSGSGSGTDFTLTISSLQPEDFATYYCQSNFYSDSTTIGPNAFGTGTKVTVLGGGGGSGGGGSGGGGSGGGGSEVQLVESGGGLVQPGGSLRLSCAASGFSFNSDYWIYWVRQAPGKGLEWIACIYGGSSGNTQYASWAQGRFTISRDNSKNTVYLQMNSLRAEDTAVYFCARGYVDYGGATDLWGQGTLVTVSS | – | – | – | 0.0258 | 7.95e-05 | 3.08e+06
6 | PRO4682 (antibody, human IgG1, kappa) QQVVESGGGLVQPGGSLRLSCAVSGIDLNSYAMTWVRQAPGKGLEWIGYIGSASSTYYASWASGRFTISKDNSKNTVYLQMNSLRAEDTAVYFCARGSTYINIWGQGTLVTVSSASTKGPSVFPLAPSSKSTSGGTAALGCLVKDYFPEPVTVSWNSGALTSGVHTFPAVLQSSGLYSLSSVVTVPSSSLGTQTYICNVNHKPSNTKVDKKVEPKSCDKTHTCPPCPAPELLGGPSVFLFPPKPKDTLMISRTPEVTCVVVDVSHEDPEVKFNWYVDGVEVHNAKTKPREEQYNSTYRVVSVLTVLHQDWLNGKEYKCKVSNKALPAPIEKTISKAKGQPREPQVYTLPPCREEMTKNQVSLSCAVKGFYPSDIAVEWESNGQPENNYKTTPPVLDSDGSFFLVSKLTVDKSRWQQGNVFSCSVMHEALHNHYTQKSLSLSPGKGGGGGSGGGGSDVQMTQSPSSLSASVGDRVTITCQASQSIGSNLAWYQQKPGKPPKLLIYKGGTLESGVPSRFSGSGSGTDFTLTISSLQPEDFATYYCQSTAGSSRSGNYGYVFGCGTKVTVLGGGGGSGGGGSGGGGSGGGGSQQLVESGGGLVQPGGSLRLSCAASGFSFTNNYYMCWVRQAPGKCLEWIACMLVGAWGNTYYASWANGRFTISKDNSKNTVYLQMNSLRAEDSAVYFCARARDYTWTLGGDPETSGFNLWGQGTLVKVSS heavy: not shown light: DVQMTQSPSSLSASVGDRVTITCQASQSISSWVSWYQQKPGKPPKLLIYRGGYLESGVPSRFSASGSGTDFTLTISSLQPEDFATYYCQSTDSSTYGGAFGQGTKVEIKRTVAAPSVFIFPPSDEQLKSGTASVVCLLNNFYPREAKVQWKVDNALQSGNSQESVTEQDSKDSTYSLSSTLTLSKADYEKHKVYACEVTHQGLSSPVTKSFNRGEC | 0.14 | 9.3 | 2.78 | – | – | –
7 | PRO4683 (antibody, human IgG1, kappa) not shown heavy: QQVVESGGGLVQPGGSLRLSCAVSGIDLNSYAMTWVRQAPGKGLEWIGYIGSASSTYYASWASGRFTISKDNSKNTVYLQMNSLRAEDTAVYFCARGSTYINIWGQGTLVTVSSASTKGPSVFPLAPSSKSTSGGTAALGCLVKDYFPEPVTVSWNSGALTSGVHTFPAVLQSSGLYSLSSVVTVPSSSLGTQTYICNVNHKPSNTKVDKKVEPKSCDKTHTCPPCPAPELLGGPSVFLFPPKPKDTLMISRTPEVTCVVVDVSHEDPEVKFNWYVDGVEVHNAKTKPREEQYNSTYRVVSVLTVLHQDWLNGKEYKCKVSNKALPAPIEKTISKAKGQPREPQVYTLPPCREEMTKNQVSLSCAVKGFYPSDIAVEWESNGQPENNYKTTPPVLDSDGSFFLVSKLTVDKSRWQQGNVFSCSVMHEALHNHYTQKSLSLSPGKGGGGGSGGGGSDIQMTQSPSSLSASVGDRVTITCQSSESVYSNNQLSWYQQKPGQPPKLLIYDASDLASGVPSRFSGSGSGTDFTLTISSLQPEDFATYYCAGGFSSSSDTAFGCGTKLTVLGGGGGSGGGGSGGGGSGGGGSEVQLVESGGGLVQPGGSLRLSCAASGFSLSSNAMGWVRQAPGKCLEYIGIISVGGFTYYASWAKGRFTISRDNSKNTVYLQMNSLRAEDSATYFCARDRHGGDSSGAFYLWGQGTLVKVSS light: DVQMTQSPSSLSASVGDRVTITCQASQSISSWVSWYQQKPGKPPKLLIYRGGYLESGVPSRFSASGSGTDFTLTISSLQPEDFATYYCQSTDSSTYGGAFGQGTKVEIKRTVAAPSVFIFPPSDEQLKSGTASVVCLLNNFYPREAKVQWKVDNALQSGNSQESVTEQDSKDSTYSLSSTLTLSKADYEKHKVYACEVTHQGLSSPVTKSFNRGEC | 0.19 | 5.33 | 2.69 | – | – | –
8 | PRO3724 (scFv, anti-PDL1 scFv) scFv: DIQMTQSPSSLSASVGDRVTITCQASQSINDYLAWYQQKPGKAPKLLIYKGGTLASGVPSRFSGSGSGTDFTLTISSLQPEDFATYYCQQGYIITDIDNVFGTGTKVTVLGGGGGSGGGGSGGGGSGGGGSQVQLQESGPGLVKPSETLSLTCKASGFSFSSGYDMCWVRQPPGKGLEWIACVVAGSVDITYYASWAKGRVTISKDSSKNQVSLKLSSVTAADTAVYYCARKDAYSDAFNLWGQGTLVTVSS | – | – | – | 0.012 | 5.7e-05 | 4.7e+06
